In US6465220B1, “Glycosylation using GalNac-T4 transferase” (GlycoZym ApS, priority 1998, dated 2002):
Like-named read-outs stand apart in the source and are kept apart here. Ends that are not written are not given here.

What was measured:
GalNAc-T2 [1] = target: T1, GalNAc-T2 (Homo sapiens, UniProt Q10471); assay: GalNAc-transferase assay with purified recombinant GalNAc-T2; format: biochemical
T1 construct: Control constructs pAcGP67-GalNAc-T1-sol, pAcGP67-GalNAc-T2-sol, pAcGP67-GalNAc-T3-sol, and pAcGP67-O^2-sol were prepared as previously described; made in house; host or cells: insect cells (baculovirus, pAcGP67)
Protocol: (§1) The following examples are provided to illustrate certain preferred embodiments of the invention, and should be considered as illustration and not as limitation. In the examples, GalNAc-transferase assays were performed in 50 μl total reaction mixtures containing 25 mM cacodylate (pH 7.5), 10 mM MnCl2, 0.1-0.25% Triton X-100, 150-200 μM UDP-[^14C]-GalNAc (4,000 cpm/nmole) (Amersham) and 0.06-1 mM acceptor peptides. Peptides were either synthesized or obtained from Carlbiotech (Copenhagen), or Neosystems (Strasbourg), and quality was ascertained by amino acid analysis and mass spectrometry. Peptides Muc-1a, Muc-1b, and TAP24, were derived from the tandem repeat of human MUC1, Gendler et al., J. Biol. Chem. 265:15286 (1990), and Muc2, Muc5AC, and Muc7 from the tandem repeats of MUC2, MUC5AC, and MUC7, respectively. Gum et al., J. Biol. Chem. 264:6480 (1989); Porchet et al., Biochem. Soc. Trans. 23:800 (1995); Bobek et al., J. Biol. Chem. 268:20563 (1993). GalNAc4TAP24 was produced by in vitro glycosylation using GalNAc-T2 as described in Wandall et al., J. Biol. Chem. 272:23503 (1997). Products were quantified by scintillation counting after chromatography on Dowex-1, octadecyl silica cartridges (Bakerbond), or HPLC (PC3.2/3 or mRPC C2/C18 SC2.1/10 Pharmacia, Smart System). Products produced by in vitro glycosylation were in most cases also confirmed by mass spectrometry.
(§2) In this example, GalNAc-T4 was expressed in Sf9 insect cells. Expression constructs designed to contain amino acid residues 32-578 of the coding sequence of the putative GalNAc-T4 gene shown in SEQ ID NO:1 prepared by genomic PCR of two clones containing GalNAc-T4 (described in Bennett et al. (1998), supra) were cloned into a BamHI site of the expression vector pAcGP67 (Pharmingen), and the expression construct was sequenced. The constructs pAcGP67-GalNAc-T4506Vsol and pAcGP67-GalNAc-T4506 I sol, were designed to yield a putative soluble form of the GalNAc-T4 protein with an N-terminal end positioned immediately C-terminal to a potential transmembrane domain and including the entire sequence expected to contain the catalytic domain. Control constructs pAcGP67-GalNAc-T1-sol, pAcGP67-GalNAc-T2-sol, pAcGP67-GalNAc-T3-sol, and pAcGP67-O^2-sol were prepared as previously described in White et al., J. Biol. Chem 270:24156 (1995); Bennett et al., J. Biol. Chem. 271:17006 (1996); and Bennett et al., Biochem. Biophys. Res. Comm. 211:347 (1995).
Activities measured with the mucin derived substrates, Muc7, EA2, and Muc2 (see Table I for structures and SEQ ID NOs:19, 25 and 18, respectively), were only 2-7 fold over background values. Very low activities with a few other substrates were also observed, but for many of the “mucin-like” substrates a relative high background with Sf9 cells infected with irrelevant constructs made assessment difficult. GalNAc-T4 was expressed in High Five cells and purified to near homogeneity, however, very low endogenous activity was detected with some substrates in the same fractions when medium from cells infected with irrelevant expression constructs were used in the same purification strategy. The activities presented in Table I were obtained with purified GalNAc-T4 and -T2, and are expressed as mU/mg (the concentration of enzyme protein estimated by SDS-PAGE using BSA as standard). The highest activities with GalNAc-T4 were found from assays of Sf9 medium with the mucin peptides Muc7, EA2, and Muc2, however, the efficiencies with these substrates were considerably lower than GalNAc-T2.

GalNAc-T4 = target: T2, GalNAc-T4 (Homo sapiens, UniProt Q8N4A0); assay: GalNAc-transferase assay with purified recombinant GalNAc-T4; format: biochemical; conditions: for GalNAc-T4 activity with substrate (in words): purified GalNAc-T4
T2 construct: made in house; host or cells: High Five insect cells (baculovirus, pAcGP67 vector)
Protocol: as §1, with “In” for “The following examples are provided to illustrate certain preferred embodiments of the invention, and should be considered as illustration and not as limitation. In”
as §2, with “Control constructs pAcGP67-GalNAc-T1-sol, pAcGP67-GalNAc-T2-sol, pAcGP67-GalNAc-T3-sol, and pAcGP67-O^2-sol were prepared as previously described in White et al., J. Biol. Chem 270:24156 (1995); Bennett et al., J. Biol. Chem. 271:17006 (1996); and Bennett et al., Biochem. Biophys.” left out
The activities presented in Table I were obtained with purified GalNAc-T4 and -T2, and are expressed as mU/mg (the concentration of enzyme protein estimated by SDS-PAGE using BSA as standard).

GalNAc-T3 [2] = target: T3, GalNAc-T3 (Homo sapiens, UniProt Q14435); assay: GalNAc-transferase assay with purified recombinant GalNAc-T3; format: biochemical
T3 construct: Control constructs pAcGP67-GalNAc-T1-sol, pAcGP67-GalNAc-T2-sol, pAcGP67-GalNAc-T3-sol, and pAcGP67-O^2-sol were prepared as previously described; made in house; host or cells: insect cells (baculovirus, pAcGP67)
T3 sequence (Q14435 38-633 limits assumed): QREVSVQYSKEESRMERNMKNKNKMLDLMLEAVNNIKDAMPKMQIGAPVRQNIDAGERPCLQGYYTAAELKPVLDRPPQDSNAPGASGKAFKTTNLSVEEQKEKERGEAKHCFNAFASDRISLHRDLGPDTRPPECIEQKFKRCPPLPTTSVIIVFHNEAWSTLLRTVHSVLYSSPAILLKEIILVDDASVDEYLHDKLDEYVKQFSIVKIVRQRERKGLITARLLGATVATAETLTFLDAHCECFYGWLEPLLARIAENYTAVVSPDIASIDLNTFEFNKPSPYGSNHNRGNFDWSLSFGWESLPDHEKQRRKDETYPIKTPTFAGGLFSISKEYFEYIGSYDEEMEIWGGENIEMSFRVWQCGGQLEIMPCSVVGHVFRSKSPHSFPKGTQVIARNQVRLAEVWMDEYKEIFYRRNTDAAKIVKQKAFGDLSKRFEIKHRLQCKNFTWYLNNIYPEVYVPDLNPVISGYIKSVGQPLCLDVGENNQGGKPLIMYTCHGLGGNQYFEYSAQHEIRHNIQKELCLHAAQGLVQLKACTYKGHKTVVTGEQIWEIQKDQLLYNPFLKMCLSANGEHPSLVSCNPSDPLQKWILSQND
Protocol: as §1, §2

GalNAc-T1 [3] = target: T4, GalNAc-T1 (Homo sapiens, UniProt Q10472); assay: GalNAc-transferase assay with purified recombinant GalNAc-T1; format: biochemical; conditions: acceptor substrate
T4 construct: Control constructs pAcGP67-GalNAc-T1-sol, pAcGP67-GalNAc-T2-sol, pAcGP67-GalNAc-T3-sol, and pAcGP67-O^2-sol were prepared as previously described; made in house; host or cells: insect cells (baculovirus, pAcGP67)
T4 sequence (Q10472 41-559 limits assumed): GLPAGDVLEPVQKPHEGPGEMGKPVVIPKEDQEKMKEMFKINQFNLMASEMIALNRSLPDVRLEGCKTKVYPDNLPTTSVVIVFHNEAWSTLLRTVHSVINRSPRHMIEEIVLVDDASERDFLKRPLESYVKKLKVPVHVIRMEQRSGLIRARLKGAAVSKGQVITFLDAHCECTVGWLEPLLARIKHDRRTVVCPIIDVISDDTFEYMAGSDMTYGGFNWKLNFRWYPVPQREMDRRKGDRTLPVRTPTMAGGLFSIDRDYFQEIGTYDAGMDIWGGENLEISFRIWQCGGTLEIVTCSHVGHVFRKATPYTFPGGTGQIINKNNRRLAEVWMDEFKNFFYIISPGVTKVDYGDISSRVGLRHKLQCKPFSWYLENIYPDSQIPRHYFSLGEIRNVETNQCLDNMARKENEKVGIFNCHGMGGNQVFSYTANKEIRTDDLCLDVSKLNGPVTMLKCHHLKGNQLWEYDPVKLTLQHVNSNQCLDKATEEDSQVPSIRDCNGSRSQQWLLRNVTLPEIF
Protocol: as §1
In this example, GalNAc-T4 was expressed in Sf9 insect cells. Expression constructs designed to contain amino acid residues 32-578 of the coding sequence of the putative GalNAc-T4 gene shown in SEQ ID NO:1 prepared by genomic PCR of two clones containing GalNAc-T4 (described in Bennett et al. (1998), supra) were cloned into a BamHI site of the expression vector pAcGP67 (Pharmingen), and the expression construct was sequenced. […]

GalNAc-T3 [4] = target: T3, GalNAc-T3; conditions: donor substrate; data from Wandall et al.; cited from earlier work
GalNAc-T1 [5] = target: T4, GalNAc-T1; conditions: donor substrate; data from Wandall et al.; cited from earlier work
GalNAc-T2 [6] = target: T1, GalNAc-T2; conditions: donor substrate; data from Wandall et al.; cited from earlier work

For PRFQDSSSSKAPPPSLPSPSRLPG [hCG-β], the “GalNAc-T2 activity with acceptor peptide” value (GalNAc-T2 [1]; 0.06 mM peptide in 50-μl assay) was 22 ± 0.5 milliunits/mg and the “GalNAc-T2 activity with acceptor peptide” value (GalNAc-T2 [1]; 0.25 mM peptide in 50-μl assay) was 74 ± 2 milliunits/mg.

With QATEYEYLDYDFLPEC [PSGL-1a] the “GalNAc-T4 activity with substrate (in words)” value (GalNAc-T4) was “not”, the “GalNAc-T2 activity with acceptor peptide” value (GalNAc-T2 [1]; 0.06 mM peptide in 50-μl assay) was 0.0 milliunits/mg and the “GalNAc-T2 activity with acceptor peptide” value (GalNAc-T2 [1]; 0.25 mM peptide in 50-μl assay) was 0.0 milliunits/mg.

In the case of “AHGVTSAPDTR [Muc1a′, peptide derived from the tandem repeat of human MUC1]”, the “specific activity of GalNAc-T3” value (GalNAc-T3 [2]; with Muc1a) is reported as 0.5 U/mg, the “GalNAc-T4 activity with acceptor peptide” value (GalNAc-T4; 0.25 mM peptide in 50-μl assay) is reported as 2 ± 0.4 milliunits/mg and the “GalNAc-T4 activity with acceptor peptide” value (GalNAc-T4; 1 mM peptide in 50-μl assay) is reported as 6.7 ± 1 milliunits/mg. The “GalNAc-T4 activity with substrate (in words)” value (GalNAc-T4) was “somewhat poor activities”, the “GalNAc-T2 activity with acceptor peptide” value (GalNAc-T2 [1]; 0.25 mM peptide in 50-μl assay) was 28 ± 5 milliunits/mg and the “GalNAc-T2 activity with acceptor peptide” value (GalNAc-T2 [1]; 1 mM peptide in 50-μl assay) was 83 ± 2 milliunits/mg.

With Ac-QATEYEYLDYDFLPETEPPEM [PSGL-1b] the Km (GalNAc-T3 [2]; acceptor substrate) was > 2000 µM, the Km (GalNAc-T2 [1]; acceptor substrate) was > 2000 µM and the Km (GalNAc-T1 [3]) was > 2000 µM.

In the case of CC(=O)N[C@H]1[C@@H](OP(=O)(O)OP(=O)(O)OC[C@H]2O[C@@H](n3ccc(=O)[nH]c3=O)[C@H](O)[C@@H]2O)O[C@H](CO)[C@@H](O)[C@@H]1O [UDP-GlcNAc], the “incorporation with alternative donor substrate” value (GalNAc-T4; Muc7 acceptor peptide) is reported as “No incorporation”.

With “PTTTPISTTTMVTPTPTPTC [Muc2, peptide from the tandem repeats of MUC2]” the “GalNAc-T4 activity with acceptor peptide” value (GalNAc-T4; 0.06 mM peptide in 50-μl assay) was 9 ± 0.5 milliunits/mg, the “GalNAc-T4 activity with acceptor peptide” value (GalNAc-T4; 0.25 mM peptide in 50-μl assay) was 29 ± 0.8 milliunits/mg and the “GalNAc-T2 activity with acceptor peptide” value (GalNAc-T2 [1]; 0.06 mM peptide in 50-μl assay) was 169 ± 2 milliunits/mg. For the same compound, the “GalNAc-T2 activity with acceptor peptide” value (GalNAc-T2 [1]; 0.25 mM peptide in 50-μl assay) was 128 ± 5 milliunits/mg.

In the case of “RPAPGSTAPPA [Muc1b′, peptide derived from the tandem repeat of human MUC1]”, the “GalNAc-T4 activity with acceptor peptide” value (GalNAc-T4; 0.25 mM peptide in 50-μl assay) is reported as 0.7 ± 0.5 milliunits/mg, the “GalNAc-T4 activity with acceptor peptide” value (GalNAc-T4; 1 mM peptide in 50-μl assay) is reported as 0.9 ± 0.8 milliunits/mg and the “GalNAc-T4 activity with substrate (in words)” value (GalNAc-T4) is reported as “somewhat poor activities”. For the same compound, the “GalNAc-T2 activity with acceptor peptide” value (GalNAc-T2 [1]; 0.25 mM peptide in 50-μl assay) was 198 ± 9 milliunits/mg and the “GalNAc-T2 activity with acceptor peptide” value (GalNAc-T2 [1]; 1 mM peptide in 50-μl assay) was 582 ± 9 milliunits/mg.

In the case of CC(=O)N[C@H]1[C@@H](OP(=O)(O)OP(=O)(O)OC[C@H]2O[C@@H](n3ccc(=O)[nH]c3=O)[C@H](O)[C@@H]2O)O[C@H](CO)[C@H](O)[C@@H]1O [UDP-GalNAc, UDP-N-acetylgalactosamine], the Km (GalNAc-T3 [4]) is listed as 29 µM, the Km (GalNAc-T1 [5]) is listed as 62 µM and the Km (GalNAc-T4; donor substrate, saturating concentration of Muc7 as substrate, read-out: Km GalNAc-T4) is listed as 160 µM. For the same compound, the Km (GalNAc-T4; using the Muc7 acceptor substrate, read-out: Km of purified GalNAc-T4 for UDP-GalNAc) was 160 µM and the Km (GalNAc-T2 [6]) was 10 µM.
